This is an account of results in patent US20240034813A1 (Janssen / Centocor, published 2024).

The target in experiment [1] is T1, recombinant human EGFR/ErbB1/HER1 with C-terminal His tag, Cy5-labeled (human, UniProt P00533 25-645, Cy5 label (reacted with Cy5 Mono NHS Ester; sites not stated)).
T1 construct: Commercial protein; also called Cy5-EGFR; Cy5-labeled EGFR antigen; not shown: C-terminal His tag
In words: competitive TR-FRET (Eu-amivantamab/Cy5-EGFR), EC50 ratio vs Reference Material; Ex. 2 Formulation 3 (acetate), T0, 40 C table. The text has this: (§1) In this procedure, varying concentrations of unlabeled bispecific EGFR-cMet antibody sample compete with donor fluorophore (Europium (Eu) chelate) labeled bispecific EGFR-cMet antibody for binding to an acceptor fluorophore (Cy5)-labeled EGFR antigen. Excitation of the donor fluorophore results in a transfer of energy to the bound acceptor fluorophore (FRET process). The resultant FRET is detected by emission of light at 665 nm using a microplate reader capable of measuring time-resolved fluorescence. Sample dose response curves are compared to the RM.
(§2) EGFR Binding Materials and Methods. Certified commercial EGFR, a recombinant human EGFR/ErbB1/HER1 with C-terminal His tag is reacted with certified commercial Cy5 Mono NHS Ester to produce Cy5-labeled EGFR. Validated bispecific EGFR-cMet antibody is reacted with certified commercial Europium (Eu) chelate to produce Eu-labeled bispecific EGFR-cMet antibody. […] Fluorescence is then measured by spectrophotometry at 665 nm, plotted against antibody concentration and analyzed by a four-parameter logistic model. The antibody concentration required to obtain half of the maximum fluorescence response (EC50) is determined for RM, assay control and samples. The potencies of assay control and samples are calculated based on the ratio of the sample (or control) and RM EC50 values and reported as a percentage activity relative to the RM.

Experiment [2] has as its target T2, recombinant cMet/HGFR with c-terminal His-tag, Cy5-labeled (UniProt P08581 25-932, limits assumed, Cy5 label (reacted with Cy5 Mono NHS Ester; sites not stated)).
T2 construct: Commercial protein; also called Cy5-c-MET; Cy5-labeled c-MET antigen; not shown: C-terminal His-tag
In words: competitive TR-FRET (Eu-amivantamab/Cy5-c-MET), EC50 ratio vs Reference Material; Ex. 2 Formulation 2 (50 mM histidine), T0, 40 C table.
From the text: (§3) In this procedure, varying concentrations of unlabeled bispecific EGFR-cMet antibody sample compete with donor fluorophore (Europium (Eu) chelate) labeled bispecific EGFR-cMet antibody for binding to an acceptor fluorophore (Cy5)-labeled c-MET antigen. Excitation of the donor fluorophore results in a transfer of energy to the bound acceptor fluorophore (FRET process). The resultant FRET is detected by emission of light at 665 nm using a microplate reader capable of measuring time-resolved fluorescence. Sample dose response curves are compared to the Reference Material (RM).
as §2, with “c-MET Binding” for “EGFR Binding”, “commercial cMet,” for “commercial EGFR,”, “recombinant cMet/HGFR” for “recombinant human EGFR/ErbB1/HER1”, “with c-terminal His-tag” for “with C-terminal His tag”, “Cy5-labeled c-MET.” for “Cy5-labeled EGFR.”, “produce Eu labeled” for “produce Eu-labeled”
Background: Time-resolved FRET reads energy transfer from a long-lived donor to a nearby acceptor.

Experiment [3] has as its target T1, recombinant human EGFR/ErbB1/HER1 with …. In words: competitive TR-FRET (Eu-amivantamab/Cy5-EGFR), EC50 ratio vs Reference Material; Ex. 2 Formulation 1 (10 mM histidine), 3 months at 40 C.
From the text: as §1, §2

Experiment [4] addresses T2, recombinant cMet/HGFR with c-terminal …. The experiment is described as follows: competitive TR-FRET (Eu-amivantamab/Cy5-c-MET), EC50 ratio vs Reference Material; Ex. 12 drug product with rHuPH20, 5 months at 5 C.
From the text: as §3
as §2, with “c-MET Binding” for “EGFR Binding”, “commercial cMet,” for “commercial EGFR,”, “recombinant cMet/HGFR” for “recombinant human EGFR/ErbB1/HER1”, “with c-terminal His-tag” for “with C-terminal His tag”, “Cy5-labeled c-MET.” for “Cy5-labeled EGFR.”, “produce Eu labeled” for “produce Eu-labeled”

The target in experiment [5] is T1, recombinant human EGFR/ErbB1/HER1 with …. The experiment is described as follows: competitive TR-FRET (Eu-amivantamab/Cy5-EGFR), EC50 ratio vs Reference Material; Ex. 12 drug product with rHuPH20, 0 months, 40 C table.
From the text: as §1, §2

Experiment [6] has as its target T2, recombinant cMet/HGFR with c-terminal …. The experiment is described as follows: competitive TR-FRET (Eu-amivantamab/Cy5-c-MET), EC50 ratio vs Reference Material; Ex. 2 Formulation 2 (50 mM histidine), 1 month at 40 C.
From the text: as §3
as §2, with “c-MET Binding” for “EGFR Binding”, “commercial cMet,” for “commercial EGFR,”, “recombinant cMet/HGFR” for “recombinant human EGFR/ErbB1/HER1”, “with c-terminal His-tag” for “with C-terminal His tag”, “Cy5-labeled c-MET.” for “Cy5-labeled EGFR.”, “produce Eu labeled” for “produce Eu-labeled”

Experiment [7] has the same target. In words: competitive TR-FRET (Eu-amivantamab/Cy5-c-MET), EC50 ratio vs Reference Material; Ex. 2 Formulation 1 (10 mM histidine), 3 months at 40 C.
From the text: as §3
as §2, with “c-MET Binding” for “EGFR Binding”, “commercial cMet,” for “commercial EGFR,”, “recombinant cMet/HGFR” for “recombinant human EGFR/ErbB1/HER1”, “with c-terminal His-tag” for “with C-terminal His tag”, “Cy5-labeled c-MET.” for “Cy5-labeled EGFR.”, “produce Eu labeled” for “produce Eu-labeled”

The target of experiment [8] is T1, recombinant human EGFR/ErbB1/HER1 with …. The experiment is described as follows: competitive TR-FRET (Eu-amivantamab/Cy5-EGFR), EC50 ratio vs Reference Material; Ex. 11 drug product, 0 months, 25 C table.
From the text: as §1, §2

B1: amivantamab (bispecific antibody, human IgG1, kappa)
heavy 1: not shown
light 1: not shown
heavy 2: not shown
light 2: DIQMTQSPSSVSASVGDRVTITCRASQGISNWLAWFQHKPGKAPKLLIYAASSLLSGVPSRFSGSGSGTDFTLTISSLQPEDFATYYCQQANSFPITFGQGTRLEIKRTVAAPSVFIFPPSDEQLKSGTASVVCLLNNFYPREAKVQWKVDNALQSGNSQESVTEQDSKDSTYSLSSTLTLSKADYEKHKVYACEVTHQGLSSPVTKSFNRGEC
notes: The samples tested were high concentration (160 mg/mL) formulations, fresh or stored or stressed; also called JNJ-61186372; bispecific EGFR-cMet antibody
As for B1, the “EGFR Binding % activity relative to RM” value in experiment [1] turned out to be 103%; in experiment [3], 41%. Moreover, the entries for the “cMET Binding % activity relative to RM” value in experiment [2], in experiment [6] and in experiment [7] were 102%, 90% and 67%, respectively. The “cMET Binding activity relative to Reference Material (%)” value in experiment [4] amounted to 100%. Moreover, the “EGFR Binding activity relative to Reference Material (%)” value in experiment [5] was determined as 92%; in experiment [8] it was 89%.
